From PMC12775393 come the findings set out here.

For test [1], the target named is S16-biotinylated E. coli 70S ribosome, translating the hairpin-less mRNA (E. coli) (UniProt P0A7K2). Description: optical tweezers with single-molecule fluorescence detection (fleezers); assisting force assay; ribosome tethered by biotinylated S16 to one bead and the 5' end of a hairpin-less mRNA to the other, 9-12 pN; Cy3-labeled EF-G in solution, GTP (1 mM stated for the H92Q and H92A mutants), 1x TLC buffer.

Test [2] addresses E. coli MRE600 tight-couple 70S ribosome (natural), translating the V50 hairpin mRNA (E. coli (endogenous in MRE600)) (UniProt P0A7K2). Kind of test: optical tweezers with single-molecule fluorescence detection (fleezers); hairpin unwinding assay; ribosome stalled on the V50 mRNA hairpin tethered between two beads at ~14 pN (13.5-14.5 pN); 10 nM Cy3-labeled EF-G in the translation mix, 1 mM GTP, 1x TLC buffer (40 mM HEPES pH 7.5, 60 mM NH4Cl, 10 mM Mg(OAc)2, 6 mM βME).

For test [3] the target is unchanged. Description: optical tweezers with single-molecule fluorescence detection (fleezers); hairpin unwinding assay as a1, with a mixture of 1 mM GTP and 0.5 mM GDPNP; slow population of a bi-exponential fit.
The target is the same in test [4]. Kind of test: optical tweezers with single-molecule fluorescence detection (fleezers); hairpin unwinding assay as a1, with a mixture of 1 mM GTP and 0.5 mM GTPγS; slow population of a bi-exponential fit.
Test [5] has the same target. Description: optical tweezers with single-molecule fluorescence detection (fleezers); hairpin unwinding assay as a1, GDPNP:GTP ratio 1:9 at constant total nucleotide concentration; slow population of a bi-exponential fit.
For test [6] the target is unchanged. Description: optical tweezers with single-molecule fluorescence detection (fleezers); hairpin unwinding assay as a1, GDPNP:GTP ratio 3:1 at constant total nucleotide concentration; slow population of a bi-exponential fit.

As to “Cy3-labeled H92A EF-G (made from EF-G(S73C)) (from UniProt P0A6M8 1-704) (enzyme)”, the τ post (time between the mRNA step and EF-G unbinding) in test [1] is greater than 20 s. In addition, in test [2], the τ release (time between hairpin unwinding and EF-G release) stood at 20 s.

The substance “Cy3-labeled H92Q EF-G (made from EF-G(S73C)) (from UniProt P0A6M8 1-704) (enzyme)” registered a τ release (time between hairpin unwinding and EF-G release) in test [2] of 2 s.

With “Cy3-labeled EF-G, single-cysteine variant EF-G(S73C) (from UniProt P0A6M8 1-704) (enzyme)”, the τ release, slow (GDPNP) population in test [3] is 8.5 s. Also, the τ release, slow (GTPγS) population in test [4] is 1.8 s. For the same substance, in test [5], the τ release, slow (GDPNP) population was 2.5 s. Besides, in test [6], the τ release, slow (GDPNP) population came to 17 s. In test [1], the mean total dwell time of EF-G on the ribosome (τpre + τ post) worked out at 308 ms. Besides, in test [2], the mean dwell time of unproductive binding events (τ unproductive) is 300 ms; the mean total dwell time of EF-G on the ribosome (τ unwinding + τ release) was found to be 445 ms; the τ release (time between hairpin unwinding and EF-G release) is 0.38 s.
